Experimental data taken from doi:10.1101/2020.12.31.424868 (bioRxiv, 2020).

Target: head domain of VN/04 HA (A/Vietnam/1203/2004 H5N1), monomeric (Influenza A virus A/Vietnam/1203/2004 …, strain)
Test: crystal structure

B1: H5.31 Fab (recombinant) (Fab, V domains shown)
VH: EVQLVQSGGGLVQPGGSLRLSCEASRFTSSSYWITWVRQAPGKGLEWVANIKQDGSEKYFVDSVKGRFTISRDNASNSLYLQMSSLRAEDTAVYYCARGFLERLLLGRQGAYYYGMDVWGQGTTVTVSS
VL: DIVMTQSPFSLSASVGDRVTMTCRASQSISSSLNWYQQKPGKAPKLLIYAASNLQSGVPSRFSGSGSGTDFTLTISSLQPEDFATYYCQQSYTMPPELTFGGGTKVEIK
binding result: binds
